According to patent publication US11851421B2, “Near-infrared cyanine dyes and conjugates thereof” (BRACCO IMAGING S.P.A., priority 2020, dated 2023):

Assays:
[1] = Optical properties: excitation/emission maxima and absolute fluorescence quantum yield; type: physicochemical
Method: A dual-beam UV-VIS spectrophotometer (Lambda 40, Perkin Elmer) was used to determine the absorbance (Abs) of the compounds of the invention. Emission/excitation (Em/Ex) spectra and absolute fluorescence quantum yield (ϕ) measurements were carried out on a spectrofluorometer (FluoroLog-3 1IHR-320, Horiba Jobin Yvon) equipped with an F-3018 integrating sphere accessory. The measurements were performed using an excitation wavelength at maximum absorbance of different dyes, and the sample was excited with a 450 W Xenon Light Source. Detection was performed by photomultiplier tubes (PMT-NIR) cooled detector or by TBX-04 detector. Dye solutions were carefully prepared to have an absorbance lower than 0.1 (optical densities) to minimize re-absorption phenomena.
The compounds of the invention have been characterized in terms of their optical properties in vitro in aqueous medium (i.e., water/PBS pH 7.4) and in a clinical chemistry control serum (Seronorm, Sero SA), mimicking the chemical composition and optical properties of human serum. All dye or dye-conjugate solutions were freshly prepared. ICG and S0456 were used as commercial references.
In particular, the excitation and emission maxima and the absolute fluorescence quantum yield (Φ) of representative compounds of formula (I) and conjugates of formula (II) are shown in Table II.

[2] = tested on: human colorectal adenocarcinoma cells HT-29; assay: Tumor uptake in animal model of human colorectal cancer (subcutaneous), ex vivo optical imaging; conditions: ex vivo tumor-to-muscle, 24 h after i.v. administration, colorectal cancer bearing mice, n = 5/group
Method: Tumor uptake experiments were performed in an animal model of human colorectal cancer (subcutaneous), using HT-29 cells, expressing low levels of integrin receptors. Briefly, the human colorectal adenocarcinoma cells HT-29 (ATCC, HTB-38) were cultured in McCoy's 5 A medium supplemented with 10% foetal bovine serum, 2 mM glutamine, 100 IU/mL penicillin and 100 μg/mL streptomycin. Male Athymic nude mice, 4-6 weeks of age (Envigo), underwent subcutaneous implantation (right flank) of about 5 million cells suspended in 0.1 mL of serum-free medium. Mice were housed 4 per cage with food and water ad libitum. […] Then, AIN-76a rodent diet irradiated (Research Diets), a special diet that reduces auto-fluorescence, was used up to the end of the experiments. Tumor growth was monitored by longitudinal assessments using a caliper up to the target size of 300-600 mm^3 (3-4 weeks after cell implantation). […]
In vivo imaging was performed under gas anesthesia (Sevofluorane 6-8% in oxygen). […] Regions of interest (ROIs) were drawn on the excised tumor and healthy reference tissue (muscle) to evaluate signal intensity (expressed as Average Radiant Efficiency). The ratio between the fluorescence signal in the tumor and in the muscle (background tissue) was then calculated to assess the tumor-to-background ratio (TBR).

[3] = biological target: T1, human recombinant integrin αvβ3 (Homo sapiens, UniProt P05106+P06756); assay: Receptor binding affinity ELISA (Vitronectin-coated plates); conditions: duplicate, read-out: Receptor affinity (IC50, nM ± St. Dev.)
T1 construct: purchased R&D Systems
T1 sequence (P06756 31-992 limits assumed): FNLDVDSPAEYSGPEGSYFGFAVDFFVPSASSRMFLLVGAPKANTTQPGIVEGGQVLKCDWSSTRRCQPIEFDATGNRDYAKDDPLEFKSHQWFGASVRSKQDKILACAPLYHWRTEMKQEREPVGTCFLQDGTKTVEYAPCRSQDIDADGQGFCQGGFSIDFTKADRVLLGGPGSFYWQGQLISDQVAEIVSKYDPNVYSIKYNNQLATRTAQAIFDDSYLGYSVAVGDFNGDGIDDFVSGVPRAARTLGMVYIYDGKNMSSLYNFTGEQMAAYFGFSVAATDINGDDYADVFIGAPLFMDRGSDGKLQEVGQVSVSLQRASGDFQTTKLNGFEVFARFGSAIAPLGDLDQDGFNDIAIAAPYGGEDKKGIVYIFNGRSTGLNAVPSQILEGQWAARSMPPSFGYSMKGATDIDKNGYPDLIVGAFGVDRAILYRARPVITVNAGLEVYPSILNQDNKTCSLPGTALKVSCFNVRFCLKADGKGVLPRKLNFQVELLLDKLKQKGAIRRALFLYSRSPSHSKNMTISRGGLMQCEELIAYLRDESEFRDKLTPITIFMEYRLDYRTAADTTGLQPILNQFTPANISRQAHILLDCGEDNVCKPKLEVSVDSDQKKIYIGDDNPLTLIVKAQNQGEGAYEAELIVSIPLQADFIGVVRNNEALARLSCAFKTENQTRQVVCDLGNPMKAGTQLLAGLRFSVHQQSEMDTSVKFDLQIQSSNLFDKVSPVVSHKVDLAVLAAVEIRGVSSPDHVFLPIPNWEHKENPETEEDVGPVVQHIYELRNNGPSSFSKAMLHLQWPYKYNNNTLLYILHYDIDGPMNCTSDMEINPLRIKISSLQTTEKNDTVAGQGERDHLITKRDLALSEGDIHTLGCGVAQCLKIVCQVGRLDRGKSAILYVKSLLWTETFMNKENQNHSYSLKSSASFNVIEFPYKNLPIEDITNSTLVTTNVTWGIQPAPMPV
T1 sequence (P05106 27-718 limits assumed): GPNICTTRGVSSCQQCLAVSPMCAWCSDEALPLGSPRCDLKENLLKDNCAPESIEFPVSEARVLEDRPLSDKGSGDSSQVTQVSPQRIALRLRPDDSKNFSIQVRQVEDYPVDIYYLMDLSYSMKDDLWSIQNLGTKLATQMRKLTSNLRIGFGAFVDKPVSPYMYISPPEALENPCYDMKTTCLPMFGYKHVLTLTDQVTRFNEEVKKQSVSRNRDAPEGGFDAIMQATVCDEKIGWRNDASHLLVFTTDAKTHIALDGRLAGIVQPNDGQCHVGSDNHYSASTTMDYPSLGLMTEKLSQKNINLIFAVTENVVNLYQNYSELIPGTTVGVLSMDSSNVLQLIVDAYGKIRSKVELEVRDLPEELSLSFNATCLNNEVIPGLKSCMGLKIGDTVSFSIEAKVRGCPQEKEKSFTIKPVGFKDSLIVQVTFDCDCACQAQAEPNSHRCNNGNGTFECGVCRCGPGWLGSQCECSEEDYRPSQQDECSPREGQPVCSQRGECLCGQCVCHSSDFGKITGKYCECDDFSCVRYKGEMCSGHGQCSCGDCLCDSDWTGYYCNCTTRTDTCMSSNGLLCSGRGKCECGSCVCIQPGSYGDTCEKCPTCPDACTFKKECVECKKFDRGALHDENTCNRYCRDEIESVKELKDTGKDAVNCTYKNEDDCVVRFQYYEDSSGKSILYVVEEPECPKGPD
Method: Briefly, 96-well ELISA plates were coated overnight at 4° C. with the extracellular matrix (ECM) protein Vitronectin in carbonate buffer (15 mM Na2CO3, 35 mM NaHCO3, pH 9.6). Each well was then washed with PBS-T-buffer (phosphate-buffered saline/Tween20, 137 mM NaCl, 2.7 mM KCl, 10 mM Na2HPO4, 2 mM KH2PO4, 0.01% Tween20, pH 7.4) and blocked for 1 h at RT with TS-B-buffer (Tris-saline/BSA buffer; 20 mM Tris-HCl, 150 mM NaCl, 1 mM CaCl2, 1 mM MgCl2, 1 mM MnCl2, pH 7.5, 1% BSA). In the meantime, a dilution series of the compound and internal standard was prepared in an extra plate. After washing the assay plate three times with PBS-T, 50 μL of the dilution series were transferred to each well. 50 μL of a solution of human recombinant integrin αvβ3 (R&D Systems, 1 μg/mL) in TS-B-buffer was transferred to the wells and incubated for 1 h. The plate was washed three times with PBS-T buffer, and then primary antibody anti-αvβ3 was added to the plate. After incubation and washing three times with PBS-T, the secondary anti-IgG peroxidase-labeled antibody was added to the plate and incubated for 1 h. After washing the plate three times with PBS-T, the plate was developed by quick addition of 3,3′,5,5′-tetrametylbenzidine (TMB) and incubated for 5 min in the dark. The reaction was stopped with 3 M H2SO4, and the absorbance was measured at 450 nm with a plate reader (Victor3, Perkin Elmer).
The IC50 of the representative Compounds 1, 2 and 4 was tested in duplicate, and the resulting inhibition curves were analyzed using GraphPad Prism version 4.0 for Windows (GraphPad Software). The inflection point defines the IC50 value.

[4] = tested on: human glioblastoma U87MG cells; assay: Tumor uptake in animal model of human glioblastoma (subcutaneous), ex vivo optical imaging; conditions: ex vivo tumor-to-muscle, 24 h after i.v. administration, glioblastoma tumor bearing mice, n = 5/group
Method: Tumor uptake experiments were carried out in an animal model of human glioblastoma (subcutanous) overexpressing the integrin receptors, particularly αvβ3. Briefly, human glioblastoma U87MG cells (ATCC, HTB-14) were cultured in Eagle's Minimum Essential Medium (EMEM) supplemented with 10% Fetal Bovine Serum (FBS), 2 mM glutamine, 100 IU/mL penicillin, 100 μg/mL streptomycin. Male Balb/c nu/nu mice, 4-6 weeks of age (Charles River Laboratories), underwent subcutaneous implantation (right flank) of about 10 million cells suspended in 0.1 mL of EMEM. Mice were housed 4 per cage with food and water ad libitum. Animals were fed with VRF1 (P) sterile diet (Special Diets Services Ltd) up to the end of the acclimation period (5 days). Then, AIN-76a rodent diet irradiated (Research Diets), a special diet that reduces auto-fluorescence, was used up to the end of the experiments. Tumor growth was monitored by longitudinal assessments using a caliper up to the target size of 300-600 mm^3 (3-4 weeks after cell implantation). […] Regions of interest (ROIs) were drawn on the excised tumor and healthy muscle tissues to evaluate signal intensity (expressed as Average Radiant Efficiency). The ratio between the fluorescence signal in the tumor and in the muscle (background tissue) was then calculated to assess the contrast.

[5] = tested on: human pharyngeal carcinoma cells Detroit-562; assay: Tumor uptake in animal model of human head and neck cancer (orthotopic), ex vivo optical imaging; conditions: ex vivo anterior vs posterior tongue, 24 h after i.v. 3 nmol/mouse, H&N tumor bearing mice, n = 5/group
Method: Tumor uptake experiments were performed in an animal model of human head and neck cancer (orthotopic), using Detroit-562 cells, overexpressing in particular integrin receptor αvβ6. Briefly, the human pharyngeal carcinoma cells Detroit-562 (ATCC, CCL-138) were cultured in Eagle's Minimum Essential Medium (EMEM) supplemented with 10% Fetal Bovine Serum (FBS), 2 mM glutamine, 100 IU/mL penicillin, 100 μg/mL streptomycin. Male Balb/c nu/nu mice, 4-6 weeks of age (Charles River Laboratories), underwent orthotopic implantation in the anterior portion of the tongue of about 2.5 million cells suspended in 0.03 mL di EMEM. Mice were housed 4 per cage with food and water ad libitum. Animals were fed with VRF1 (P) sterile diet (Special Diets Services Ltd) up to the end of the acclimation period (5 days). Then, AIN-76a rodent diet irradiated (Research Diets), a special diet that reduces auto-fluorescence, was used up to the end of the experiments. Tumor growth was monitored by longitudinal assessments using a caliper up to the target size of 10-20 mm^3 (7-10 days after cell implantation).
Imaging experiments were performed using the preclinical optical system IVIS Spectrum (Perkin Elmer). Animals were intravenously injected (lateral tail vein) with 3 nmol/mouse, at 24 hours post-administration were euthanized by anesthesia overdose, and the tongues were excised for ex vivo optical imaging. […]

[6] = biological target: T2, human serum albumin (HSA) (Homo sapiens, UniProt P02768); assay: Binding affinity to human serum albumin (absorbance peak shift or ultrafiltration method)
T2 construct: purchased Sigma Aldrich A9511
T2 sequence (P02768 25-609): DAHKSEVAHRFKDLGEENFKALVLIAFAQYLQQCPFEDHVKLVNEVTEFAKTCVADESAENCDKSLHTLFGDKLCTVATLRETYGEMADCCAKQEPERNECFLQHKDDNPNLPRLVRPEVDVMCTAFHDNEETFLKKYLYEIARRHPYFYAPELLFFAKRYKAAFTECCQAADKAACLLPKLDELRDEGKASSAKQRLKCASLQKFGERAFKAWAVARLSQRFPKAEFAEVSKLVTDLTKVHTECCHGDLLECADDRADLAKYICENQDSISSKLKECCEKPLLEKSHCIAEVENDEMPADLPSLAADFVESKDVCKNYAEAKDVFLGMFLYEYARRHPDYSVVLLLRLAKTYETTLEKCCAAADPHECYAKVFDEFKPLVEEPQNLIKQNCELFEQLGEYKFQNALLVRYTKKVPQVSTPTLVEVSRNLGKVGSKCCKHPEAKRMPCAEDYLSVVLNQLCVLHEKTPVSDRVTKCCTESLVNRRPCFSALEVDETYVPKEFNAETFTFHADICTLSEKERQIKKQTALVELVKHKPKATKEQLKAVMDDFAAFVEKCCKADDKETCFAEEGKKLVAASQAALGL
Method: An analysis of the binding affinity of the compounds of the invention to human albumin was carried out and the results compared with ICG and […] as a reference. Binding affinity to human serum albumin (HSA; Sigma Aldrich, A9511) was measured using two methods, according to the level of binding affinity of the compounds. The first method, optimal for compounds which strongly interact with HSA, is based on the analysis of the absorbance spectrum peak shift after the incubation of the dye in solutions containing HSA. […] The measure was performed at the maximum absorbance wavelength of the shifted peak. The second method, optimal for compound with low affinity for HSA, is based on measuring the variation of the absorbance of solutions containing the dye and various concentrations of HSA after ultrafiltration. […] In the first method, ΔA/b corresponds to the absorbance measured for each sample, whereas in the second method ΔA/b is obtained subtracting the absorbance of the control sample (dye without HSA) to the absorbance of each other sample.

[7] = tested on: WM-266-4 human melanoma cells; assay: Cell uptake by FACS in presence of human serum; type: cell-based; conditions: WM-266-4 cells; fluorescence intensity in absence of serum = 100%
Method: The human melanoma cell line WM-266-4 (ATCC, CRL-1676) was used as in vitro model to assess the cell uptake of representative integrin-binding Compounds 1, 2 and 4, based on the high expression of the integrin receptors, particularly αvβ3, on the membrane of these cells (Capasso et al., PlosOne 2014).
Adherent cells at about 70% confluence were incubated with the Compounds 1 or 3 (1 μM) for 2 h at 37° C. (5% CO2) in presence of Dulbecco's Modified Eagle's Medium (DMEM) supplemented with 10% FBS, 2 mM glutamine, 100 IU/mL penicillin and 100 μg/mL streptomycin. […] Fluorescence Activated Cell Sorting (FACS) was used to detect the fluorescence signal within the cells, as measure of cell uptake. Samples were excited with an Argon laser and the emission detected using a 670 nm longpass filter. Values of fluorescence intensity were obtained from the histogram statistic produced by the instrument software.
The residual internalization was calculated by considering the value of fluorescence intensity in absence of the competitor as 100%.
Furthermore, to assess the effect of biological fluids on the cell uptake, parallel experiments were performed incubating the cells with a compounds of the invention in presence of human serum from male AB plasma (Sigma Aldrich, H4522). The residual internalization was calculated by considering the value of fluorescence intensity in absence of the serum as 100%. […]

[8] = Seronorm (clinical chemistry control serum)

SMILES | Max Em (emission maximum) ([1]; PBS pH 7.4) [nm] | Max Ex (excitation maximum) ([1]; PBS pH 7.4) [nm] | Φ (absolute fluorescence quantum yield) ([1]; PBS pH 7.4) [%] | Φ (absolute fluorescence quantum yield) [1, 8] [%] | Tumor-to-background ratio (mean ± St. Dev) [2] | IC50 [3] [nM] | Tumor-to-background ratio (mean ± St. Dev) [4] | Tumor-to-background ratio (mean ± St. Dev) [5] | Kd [6] [nM] | Residual cell uptake in presence of human serum [7] [%]
CC1(C)C(/C=C/C2=C(c3ccc(CCC(=O)NCCCCC4NC(=O)[C@@H](Cc5ccccc5)NC(=O)[C@H](CC(=O)O)NC(=O)CNC(=O)[C@H](CCCNC(=N)N)NC4=O)cc3)C(=C/C=C3/N(CCCCS(=O)(=O)O)c4ccc(C(=O)NCC(O)C(O)C(O)C(O)CO)cc4C3(C)C)/CCC2)=[N+](CCCCS(=O)(=O)[O-])c2ccc(C(=O)NCC(O)C(O)C(O)C(O)CO)cc21 (some centres unmarked) [Compound 1] | 788 | 771 | 4.4 | 10.9 | 4.30 ± 1.50 | 2.73 ± 0.5 | 6.92 ± 0.64 | 2.27 ± 0.50 | – | –
CC1(C)C(/C=C/C2=C(Oc3ccc(S(=O)(=O)O)cc3)C(=C/C=C3/N(CCCCCC(=O)NCCCCC4NC(=O)[C@@H](Cc5ccccc5)NC(=O)[C@H](CC(=O)O)NC(=O)CNC(=O)[C@H](CCCNC(=N)N)NC4=O)c4ccc(C(=O)NCC(O)C(O)C(O)C(O)CO)cc4C3(C)C)/CCC2)=[N+](CCCCS(=O)(=O)[O-])c2ccc(C(=O)NCC(O)C(O)C(O)C(O)CO)cc21 (some centres unmarked) [Compound 2] | 805 | 783 | 6.1 | 7.5 | 4.20 ± 0.80 | 1.64 ± 0.41 | – | 2.26 ± 0.10 | 38200 | 90
